We go through three substances from patent US20070104647A1.

In experiment [1] the target is transferrin receptor on 293F and HT29 cells (UniProt P02786). The experiment in a line: cell-based or functional assay.
The target is the same in experiment [2]. The experiment in a line: FACS, Ovr115-transfected 293F cells.
Experiment [3] shares this target. The experiment in a line: FACS, non-transfected 293F cells.
Experiment [4] addresses Full length HA-tagged Ovr115 (Met1-Leu435) expressed on transfected LMTK or 293F cells (human) (UniProt Q9NRS4). The experiment in a line: FACS, Ovr115-HA LMTK cells.
For experiment [5] the target is unchanged. Description: FACS, Ovr115-transfected 293F cells.
Experiment [6] has the same target. The experiment in a line: FACS on Ovr115 transfected mouse LMTK cells, PE conjugate alone without MAb [panel A].

Chain of UniProt P02786 (P02786 whole entry): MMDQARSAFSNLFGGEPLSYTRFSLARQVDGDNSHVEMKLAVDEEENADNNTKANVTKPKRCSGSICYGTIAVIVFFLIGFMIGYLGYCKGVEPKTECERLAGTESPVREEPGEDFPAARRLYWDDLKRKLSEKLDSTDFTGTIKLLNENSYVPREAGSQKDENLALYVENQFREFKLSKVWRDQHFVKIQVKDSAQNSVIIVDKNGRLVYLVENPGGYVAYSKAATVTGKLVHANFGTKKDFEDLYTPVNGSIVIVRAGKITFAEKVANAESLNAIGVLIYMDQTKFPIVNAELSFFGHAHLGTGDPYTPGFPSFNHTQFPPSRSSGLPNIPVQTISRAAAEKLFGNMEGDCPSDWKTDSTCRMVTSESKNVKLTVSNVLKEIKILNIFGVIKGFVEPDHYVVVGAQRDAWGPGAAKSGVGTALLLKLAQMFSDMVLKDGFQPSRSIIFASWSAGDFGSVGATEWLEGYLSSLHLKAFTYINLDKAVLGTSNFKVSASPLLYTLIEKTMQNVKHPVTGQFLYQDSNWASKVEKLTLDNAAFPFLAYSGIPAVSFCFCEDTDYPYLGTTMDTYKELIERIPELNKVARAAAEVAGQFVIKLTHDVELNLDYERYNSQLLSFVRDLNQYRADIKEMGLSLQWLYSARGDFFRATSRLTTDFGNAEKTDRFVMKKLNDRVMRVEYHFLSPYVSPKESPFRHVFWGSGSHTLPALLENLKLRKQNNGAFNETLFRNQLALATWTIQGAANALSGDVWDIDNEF

With 5E9C11 (antibody), in experiment [1], the Percent Growth Inhibition Compared to Wells with Medium Alone; HT29; MAb (0.08 µg/mL) + MAb Zap saporin conjugate turned out to be 18%, the Percent Growth Inhibition Compared to Wells with Medium Alone; HT29; MAb (0.4 µg/mL) + MAb Zap saporin conjugate is 58% and the Percent Growth Inhibition Compared to Wells with Medium Alone; HT29; MAb (2 µg/mL) + MAb Zap saporin conjugate is 35%. In addition, in experiment [2], the % cells positive amounted to 99.4% and the MFI amounted to 71.1. In experiment [3], this substance had a % cells positive of 99.8% and an MFI of 54.3.
As for Anti-HA MAb (Covance) (antibody), in experiment [4], the % cells positive was 61% and the MFI was found to be 19.
Turning to “phycoerythrin (PE) conjugated donkey anti-mouse IgG Fc antibody”, the values for the % cells positive in experiment [4] and in experiment [5] were 0.6% and 1.7%, respectively. Moreover, the MFI was found to be 2.15 in experiment [4] and 0.567 in experiment [5]. In experiment [6], this substance came in with a Mean of Fluorescence of 0.57.
